Target: 6xHis-TLX ligand-binding domain (UniProt Q9Y466 155-385)
Sequence (Q9Y466 155-385): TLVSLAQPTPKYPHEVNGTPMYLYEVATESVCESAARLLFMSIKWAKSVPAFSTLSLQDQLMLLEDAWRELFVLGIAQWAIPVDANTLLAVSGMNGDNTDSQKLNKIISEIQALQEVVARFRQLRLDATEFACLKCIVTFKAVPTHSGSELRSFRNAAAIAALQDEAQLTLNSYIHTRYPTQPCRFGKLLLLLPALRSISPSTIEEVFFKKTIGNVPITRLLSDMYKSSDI

LTERHKILHRLLQEGSPSD [NCOA1-II peptide (competitor in the ALPHA competition experiment)]
EC50: 3.3 µM
